Molecular target: recombinant human IFNγ (human) (UniProt P01579)
Assay: cell-based or functional assay

Sequence of recombinant human IFNγ (human) (P01579 24-166 limits assumed): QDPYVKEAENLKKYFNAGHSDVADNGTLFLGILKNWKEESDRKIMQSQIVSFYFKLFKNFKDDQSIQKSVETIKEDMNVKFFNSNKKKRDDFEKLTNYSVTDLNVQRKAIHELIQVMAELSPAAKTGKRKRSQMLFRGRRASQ

Substance: R&D Systems mouse anti-human IFNγ antibody MAB285
- MHC II Inhibition Cell-Based Assay IC50: 0.4 nM

Source: patent US20100158922A1
